Data from US20140196172A1, “Organelle Targeting Nanocarriers” (Her Majesty the Queen in Right of Canada, as Repre sented …, priority 2011, published 2014).

Columns and labels:
[1] = tested on: Caco-2 (human colonic epithelial cell line); assay: Uptake of labeled peptides by Caco-2 cells, photometric cell imaging; type: cell-based; settings: for Average concentration of labeled peptide measured in cells, Caco-2: cells exposed to labeled peptide at 17 μM; for Photometric Cell Imaging (average counts/sec) Caco-2: 1 hr, background about 1×10^5 counts/sec
Protocol: Caco-2 and F1112 cells are cultured in Dulbecco's Modified Eagle Medium (DMEM) containing 10% (v/v) fetal bovine serum (FBS) and 50 μg/ml gentamycin at 37° C. in a 95% humidified atmosphere containing 5% CO2. The cells are grown in Falcon™ […] 75 cm^2 cell culture flasks until they reach confluency, then are detached with 0.25% trypsin and 0.02% EDTA and washed with DMEM.
Preparations used for photometric cell imaging are prepared by adding 1000 cells to a Nunc coverglass chamber (2.5 cm^2). Cells are cultured as described above for 3 to 7 days. The cell monolayers are rinsed three times with epithelial cell saline (pH 7.4).
Varying concentrations of fluoresceinated mTPs (100 μM) are added to epithelial cell saline to obtain a final working volume of 400 μl. Final concentrations added to the Caco-2, F1112 and MG cell monolayers as described above are 17 μM, 9 μM and 4 μM. Cells are incubated with the peptides for 1 hr in the dark at 37° C. in a 95% humidified atmosphere containing 5% CO2. At the end of the incubation period, the cell monolayer is rinsed three times with epithelial cell saline and 500 μl of epithelial cell saline is added.
Uptake of labeled peptides by cells is quantified using a photometric detector/cell-imaging system (PTI). An excitation scan is run to determine if uptake has occurred as indicated by peaks at the appropriate wavelengths and if the amount changes in a dose-dependent manner compared to unlabeled cells. A time-based scan is then performed at the optimal excitation and emission wavelength to quantify total uptake, using about 20 cells/view/replicate.

[2] = tested on: mitochondria of triticale microspores; assay: qRT-PCR of gfp mRNA, microspores transfected with pWMaadA16GFP; type: cell-based; settings: gfp reporter construct
Text: FIG. 17 is a plot showing the level of expression (fold increase, average of 4 replicates) of GFP in triticale microspores transfected with the pWMaadA16GFP plasmid in the presence of mTP1 (SEQ ID NO: 1), mTP2 (SEQ ID NO: 2), mTP3 (SEQ ID NO: 3), mTP4 (SEQ ID NO: 4) or mTP5 (SEQ ID NO: 5) compared to the level of expression (fold increase) of the internal control elongation factor 1a (EF1a), as measured by quantitative real time PCR of mRNA levels;
Wheat mitochondrial aadA16GFP reporter plasmid (pWMaadA16GFP, FIG. 11) is a 4587 base pair wheat specific mitochondrial transformation vector, which targets insertions into the fourth repeat region between the trnfM and rm18 gene cluster which is repeated three times in the Triticum aestivum mitochondrial genome. The insertion site is in the Triticum aestivum mitochondrial genome at nucleotides 300805-300878 and 300880-302834 (GenBank accession No. AP008982.1). A multiple cloning site is introduced following the tmfM target insertion sequence. The selection marker gene is an organelle codon specific aad-gfp fusion gene, which facilitates a dual selection method of spectinomycin resistance through an aadA derivative and visual detection by GFP fluorescence (GenBank accession No. ABX39486; Khan and Maliga, Nat. Biotechnol. (1999 September) 17(9): 910-5). The selection marker gene is driven by the Triticum aestivum mitochondrial atpA gene promoter (GenBank accession No. X54387.1). The aad-gfp fusion gene is terminated with the TpsbA terminator sequence derived from the Triticum aestivum mitochondrial genome at nucleotides 62871-62565 (GenBank accession No. AP008982.1).
The dsDNA construct (pWMaadA16GFP for mitochondrial expression or pWCaadA16GFP for expression in chloroplasts) is combined with the mTP (for mitochondrial expression) or cTP (for expression in chloroplasts) in the amounts used in the protoplast transformation experiments described above in a final volume of 100 μl of NBP-99 solution. The mixture is incubated for 10 minutes at room temperature, then incubated with isolated triticale microspores (500 μl, 10^6 microspores/ml, prepared as described in Example 2) for 1 h in the dark at room temperature. NBP-99 solution (500 μl) is added and the mixture is incubated in the dark for 24 h. The cells are imaged using confocal microscopy, as described in Example 2, using MitoTracker® Orange staining to visualize mitochondria.
Microspores are disrupted using a cleaned ceramic bead and aggressive shaking as the tissue is thawing. RLT buffer/B-Me (450 μl) is added and the sample is vortexed. The sample is heated at 55° C. for 1 minute and vortexed again. RNA is extracted using an RNeasy™ Plant Mini Kit (Qiagen), incorporating on-column DNase I digestion into the protocol. The final elution volume is 40 μl. RNA is assessed using both agarose gel […] (to ensure RNA is intact) and spectrophotometry (for quantification).
cDNA is generated using a First Strand Synthesis kit (Invitrogen). RNA (1 μg) is added to each sample and the manufacturer's protocol for synthesis followed, with the exception that the volume of the reaction mixture is increased from 20 μl to 30 μl. A negRT sample containing all reagents but no RNA is included in the cDNA synthesis as a negative control. […]
Real time PCR reactions are performed using QuantiTect™ SYBR™ Green PCR Master Mix (Qiagen) in a 20 μl reaction volume. […]

[3] = tested on: linearized plasmid DNA (linear double stranded DNA, 6.8 kb); assay: Gel mobility shift assay; type: binding; settings: minimum peptide needed for complete shift of 100 ng plasmid DNA; — = no shift up to highest ratio tested
Protocol: The ten non-labelled oTP sequences identified as having both cell penetrating and organelle targeting properties (Tables 3 and 4) were tested, using a gel mobility shift assay and a nuclease protection assay, for their ability to bind non-covalently to nucleic acids.
The gel mobility shift assay is used to determine the minimum peptide concentration needed to bind to plasmid DNA and cause it to shift during electrophoresis. Purified linearized plasmid DNA (100 ng of linear double stranded DNA, 6.8 kb) is mixed with increasing concentrations of each of the ten oTPs listed in Tables 3 and 4, according to calculated increasing peptide:DNA charge ratios (1:1, 2:1, 3:1, 4:1, 5:1, etc.) until a complete shift is observed in the plasmid DNA during electrophoresis. The DNA is prepared to a final concentration of a 100 ng/μl in sterile water. Each reaction has a final volume of 25 μl and is incubated for 30 min for complex formation and subjected to electrophoresis on 1% agarose gel stained with ethidium bromide.

Sequence	Average concentration of labeled peptide measured in cells, Caco-2 [1] [nm]	Photometric Cell Imaging (average counts/sec) Caco-2 ([1]; labeled peptide 4 μM) [counts/sec]	Photometric Cell Imaging (average counts/sec) Caco-2 ([1]; labeled peptide 9 μM) [counts/sec]	Photometric Cell Imaging (average counts/sec) Caco-2 ([1]; labeled peptide 17 μM) [counts/sec]	GFP expression by mitochondria confirmed by qRT-PCR [2]	Peptide:DNA Ratio, Molar Binding Ratio [3]
MLFRLRRSVRLRGLLA (listed as Arabidopsis thaliana) [mTP5]	60	280000	650000	1600000	GFP is expressed	114.29
MWWRRSRTNSLRYT (listed as Arabidopsis thaliana) [mTP4]	60	300000	1200000	1600000	GFP is expressed	
MAAWMRSLFSPLKKLWIRMH (Zea mays) [mTP2]	20	340000	420000	490000	GFP is expressed	167.39
MKLLWRLILSRKW (listed as Arabidopsis thaliana) [mTP3]	60	460000	1200000	1600000	GFP is expressed	71.39
MFSYLPRYPLRAASARALVRATRPSYRSALLRYQ (listed as Triticum aestivum) [mTP1]	70	200000	1200000	1600000	GFP is expressed	264.14
